Measured values as given in the supplement of paper PMC12042874.
± gives the uncertainty stated by the source.

Assay: amyloid nucleation score (Sup35N fusion, yeast selection) (log enrichment); library NNK1; higher = more nucleation; inactive = no reads after selection
Outline: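 Psi-negative yeast expressed Sup35N fused to peptides of 20 random codons. They were induced 24 hours with 100 μM copper sulfate, grown 7 days at 30°C without adenine and uracil, and their plasmid inserts from input and output were Illumina-sequenced. The nucleation score is the DiMSum log enrichment of output over input reads, centred on the mode score of non-aggregating sequences. Sequences with under 100 input reads were excluded.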

| Substance | amyloid nucleation score |
| --- | --- |
| CDIVNKSTGGLSTRALKIVY | 0.051 ± 0.69 |
| CDKTYPANSLCLKDFGQLEG | -0.019 ± 0.64 |
| CDQASL | inactive |
| CDRVGSKEQSFDKWPLWFAP | -1.18 ± 1.9 |
| CDTFYLLVLALTYWEWANLE | -0.497 ± 0.99 |
| CDVAVVSFFGMADDPVYRVH | 1.54 ± 0.48 |
| CDVRLPF | 0.249 ± 0.61 |
| CDWSCSDSVCFITLCKYDDC | 6.921 ± 0.047 |
| CECRRANVADPFRVSCWAKF | 0.156 ± 1.2 |
| CEKTWNLRDCSGLLQVTRG | 0.099 ± 0.29 |
| CENVIEFNENVKG | 0.503 ± 0.29 |
| CEVAQCHYLVVWFCAWAWRY | 0.939 ± 0.68 |
| CFDFYSYRVVSSAINYQFVM | -1.02 ± 0.39 |
| CFEVHTHSESLL | -0.662 ± 0.72 |
| CFFDGICLDQERYVMNFRAF | 0.104 ± 0.51 |
| CFFILW | -0.066 ± 0.55 |
| CFILTVTYLNVGGNRMTAFH | 3.36 ± 0.1 |
| CFNTRHRVQELRL | -0.224 ± 1.7 |
| CFNVYWLFAIGGYGMRLRSD | -1.04 ± 1.1 |
| CFRDGYSKLCGCYVSMRTGH | 0.459 ± 0.53 |
| CFRTFKFLI | 2.49 ± 0.27 |
| CFSQPHGAVANHNAFSDNPW | -0.289 ± 0.39 |
| CFVMLFDRYVNLLIGNQLWY | 0.145 ± 0.35 |
| CFVVYGQTPSTVPRINAVLS | 6.46 ± 0.069 |
| CGADVNVWMTIWHYLFIDRG | inactive |

| Substance | amyloid nucleation score |
| --- | --- |
| CGFDRMAMYWVNFDLHWSSA | 0.121 ± 0.36 |
| CGKPPFGNYWGTWCKIVVTL | 0.746 ± 0.62 |
| CGMARWSRKSTELAHKQNVD | 0.277 ± 0.61 |
| CGSRSCSLFDRKWIRYFLGC | 0.759 ± 0.34 |
| CGVEA | -0.542 ± 0.76 |
| CHLIL | 0.115 ± 0.34 |
| CHLTMIMNLVIMMAWNPLHC | 0.765 ± 0.47 |
| CHYMSHSSWHSWTNRVMRDM | 0.531 ± 0.29 |
| CIFLM | 0.21 ± 0.48 |
| CIGNCYGWLSDLSWWSCPSS | 0.676 ± 0.3 |
| CIIDKFGVLIV | inactive |
| CIILKTIPIIDY | inactive |
| CIIVFPISTPWAQGSYIRIQ | 0.041 ± 1.2 |
| CILSSHL | 2.61 ± 0.33 |
| CISAVPCM | 0.497 ± 0.43 |
| CIYIQYYLNLTVFCRVRLNA | -0.516 ± 1.7 |
| CIYIWCGVFGSYFGFLVLAA | 0.18 ± 0.49 |
| CLARNSYPDVFRSETGKEAV | -0.093 ± 0.7 |
| CLCLKVFLQKVVRGCNR | 1.01 ± 0.29 |
| CLDVFASISMRHFYFVFMCY | 0.487 ± 0.75 |
| CLFLIKKHVNNDMGSVRRLS | 0.317 ± 0.71 |
| CLFNSGFSDIGLRGMWGRKF | 0.358 ± 0.35 |
| CLGAVIDSGNHSNSCYIRGD | 2.07 ± 0.67 |
| CLKFLDLNIKIDPYQFSF | inactive |
| CLKHLWLRQSKEKVD | inactive |

| Substance | amyloid nucleation score |
| --- | --- |
| CLLFTEMFTPLVEVAESM | -0.038 ± 0.48 |
| CLLHEASCGWFFGWFVRHT | 0.989 ± 0.28 |
| CLNVYNLFMSLPGVAAPPMV | 6.9 ± 0.085 |
| CLRLVQEFTFMYTVVHGARC | 1.13 ± 0.71 |
| CLSSALLHLFRRNRIISVVT | 0.193 ± 0.39 |
| CLTIGCWRFSF | 4.57 ± 0.093 |
| CLVVPCD | 0.151 ± 0.42 |
| CMGLFVTSSL | 0.38 ± 1.2 |
| CMIIRVGGRQGIHYSFSRMD | -0.652 ± 0.26 |
| CMLLNWIPMRRARLTTFVGK | 0.433 ± 0.58 |
| CMRMRMFSKVVGSLWWESGY | 0.054 ± 0.39 |
| CMTPS | inactive |
| CMYFFRVTGKINNINSLYCW | -0.824 ± 0.38 |
| CNFHVCLRLRDIWSRLYLVV | 7.157 ± 0.07 |
| CNHSTSFVEVVERL | -0.085 ± 0.42 |
| CNLYFSYNCVFT | -0.592 ± 0.24 |
| CNPSG | 0.819 ± 0.51 |
| CNQYWVSQ | 0.322 ± 0.26 |
| CNRLIHDMHVCLTNE | inactive |
| CNSLTLFRWYFNMVGNIQAN | -0.143 ± 0.37 |
| CPGFD | 0.595 ± 0.64 |
| CPLRIIQLMCTNRGLMGRLG | -0.071 ± 0.31 |
| CPMWYYCRSVLSSLAVSDCS | inactive |
| CPRTWFLENNRVTIMHFYRG | 6.67 ± 0.08 |
| CPVWELLKDCMCHKNGLFCT | 1.28 ± 0.58 |

| Substance | amyloid nucleation score |
| --- | --- |
| CQIPVFENYFLHLGWSYAPL | 0.224 ± 1.4 |
| CQNFDDI | 0.117 ± 0.9 |
| CQSVFRGTIHS | -0.235 ± 0.55 |
| CRACSHMTKLLIGTFLLLDF | -0.325 ± 0.6 |
| CRCSSQLRYMHGRFWFDRSV | 0.084 ± 0.62 |
| CRFMSVICHTLFWTPLTFYY | 0.592 ± 0.83 |
| CRGFFLGFPIHQVKAFCFCR | -0.047 ± 1.7 |
| CRIVKARDGC | -1.23 ± 2.4 |
| CRKVITRVGSVTVTGGFYLI | -0.374 ± 0.67 |
| CRLKLNPSVHGIGRGVCLAE | -0.464 ± 0.48 |
| CRMGFNQLWLKLRNRCVGLG | -0.008 ± 0.36 |
| CRNTLPGP | -0.398 ± 0.44 |
| CRRIWA | -0.377 ± 0.34 |
| CRTYYCHTHGPAQKDHYDRG | -0.78 ± 0.89 |
| CRVLWQWNSKLGCFAAALNL | -0.326 ± 0.63 |
| CRYTMGSNKVALFYGWMHPG | 0.726 ± 0.66 |
| CSDRRS | -0.054 ± 0.53 |
| CSKFLVVVSVYFLVYSVEHM | -0.94 ± 1.6 |
| CSLRYVLHYRYVGLETATNT | 0.763 ± 0.5 |
| CSQLLKLTQSAYLFFVNQDS | 0.676 ± 0.52 |
| CSSIWHCPVYDVITLM | 0.282 ± 0.75 |
| CSTFRVDFFSPCFLL | 6.006 ± 0.05 |
| CSVMSNARRIWDRMQLNGVK | -0.568 ± 0.33 |
| CSWDYMVVR | -0.137 ± 0.98 |
| CTEFRFF | 0.314 ± 0.47 |

| Substance | amyloid nucleation score |
| --- | --- |
| CTFILVLHLLHINTDHIMSA | -0.176 ± 1.1 |
| CTGSVWYAPLWMWWEWLR | 0.498 ± 0.69 |
| CTIRYWF | 1.5 ± 0.42 |
| CTVMHELCCRWFELFRRSVR | 1.45 ± 0.63 |
| CVCLKDPANLSAIGCRGESL | -1.6 ± 2.7 |
| CVCLRGDKGPLSRLRLRSSS | 0.254 ± 1 |
| CVDCALQFLGCRVGALLTRG | -0.875 ± 1.7 |
| CVELVLSCV | -0.095 ± 0.43 |
| CVLFAYFNALF | 1.3 ± 0.57 |
| CVRLHPSDWAFYRAPFNKHG | 0.659 ± 0.55 |
| CVRNGLGCYSCTRTFFTVIV | -0.409 ± 0.94 |
| CVSFMVTFTIMRQLYNCKCR | 3.91 ± 0.077 |
| CVVGLISGSPPIRSVFKCNR | 0.156 ± 0.98 |
| CWFTAVLARPLWNSSVSSVA | -0.369 ± 0.34 |
| CWGLLSGDCHALEKFNRFYL | -0.086 ± 0.48 |
| CWLGCYPSSGEQWGGWFNAI | -0.344 ± 0.7 |
| CWLTRCCITWVIHRVMANLM | 0.51 ± 0.84 |
| CYELSGWGNSWVGNRSLGFV | 0.626 ± 0.46 |
| CYIYPVFLGFMYCREEGNMG | 1.93 ± 0.37 |
| CYLPWDSKNGVEDLYWYEFK | 1.79 ± 0.13 |
| CYYSRFHFAPISIMFCVNGG | 5.99 ± 0.076 |
| DAMFLL | -0.358 ± 0.31 |
| DATCLESLALSYKG | -0.573 ± 0.41 |
| DCEGLFI | 0.864 ± 0.74 |
| DCESVWSIKGNKPMLFDRIL | -1.45 ± 1.7 |

| Substance | amyloid nucleation score |
| --- | --- |
| DCNFCL | -0.545 ± 1.1 |
| DCSFRCMYAIMLYVLCLSHN | 0.422 ± 0.35 |
| DCWRRYYSSLLITVGGLFYK | -0.014 ± 0.34 |
| DCWSITILSVNRGSLFRLTF | inactive |
| DCYHLGQTIPISRFGLRTKL | 0.826 ± 0.75 |
| DCYSRNVDLYGCGDDGDILL | -0.031 ± 0.25 |
| DDFTLCKPGLVYMMSG | 0.398 ± 0.6 |
| DDLSGRRELTLRQT | 0.618 ± 0.49 |
| DDLWSCMFELDAYMSFYLKA | inactive |
| DDMVPNWARVTCLSQNWL | 0.385 ± 0.54 |
| DDNGPTYR | inactive |
| DDNSMSDTHLL | 1.13 ± 0.25 |
| DDRTKLQLSMRWEQQIMRHR | 3.48 ± 0.12 |
| DDTDLVLVMRRSIVERGMRE | 0.437 ± 0.39 |
| DEDDSD | 0.471 ± 0.46 |
| DEKMVSVSSESGRLHKNVKC | 1.11 ± 0.49 |
| DETLEEPCT | 0.017 ± 0.43 |
| DFARNQDGSFVWN | -0.575 ± 0.36 |
| DFEDTYSWKVTGEGATRKRW | 0.166 ± 0.49 |
| DFRLGHDFWANKSFFFTSPN | -0.028 ± 0.31 |
| DFSYSNPDFVFLTQYIAYEK | 4.43 ± 0.06 |
| DFVLIIFFCPCRYCSSTHTT | 3.32 ± 0.2 |
| DFVRMSRPHG | 0.563 ± 0.51 |
| DGFALGMSRC | inactive |
| DGNNNKLVMVLWLSYADYRW | inactive |

| Substance | amyloid nucleation score |
| --- | --- |
| DGSNRHLSRSMVGRGRT | 0.335 ± 0.8 |
| DGSSLSPDPSLVWLKDM | -0.823 ± 0.55 |
| DGVEFPFRMIESRFNGCQD | -0.613 ± 0.77 |
| DHLVEQYDRGDAAFFRLVFV | inactive |
| DIAHC | -0.464 ± 0.59 |
| DIFVLMRAMWHRGMI | 0.857 ± 0.8 |
| DIGLREFNWVTNITTLPQLG | 1.33 ± 0.61 |
| DIGRSAGRGVFVFSLLCNKW | 3.63 ± 0.18 |
| DIHNRDCVLYDRLDRHVYMK | -0.083 ± 0.31 |
| DIILLYSLFADIFISGRIYT | -0.13 ± 0.58 |
| DILEIWL | -0.481 ± 0.4 |
| DIRIPMHLSIDLQVVLSLRY | 0.172 ± 0.63 |
| DIRLIPCMSMVC | -1.38 ± 1.1 |
| DITNVAWNMPNTRCEPKPLK | 0.444 ± 1.2 |
| DIYIMSNGLGYYFFSTNVRM | 2.55 ± 0.19 |
| DIYRRSVGGRWLRLFSRRVV | 0.209 ± 0.39 |
| DKNVSRFIPNEMLCLKPWAP | 1.19 ± 0.9 |
| DKTGLGRRGPIIFSLSFRWS | -1.55 ± 1.4 |
| DKYTARDVSKRT | 1.56 ± 0.59 |
| DLDRDAKLS | -1.43 ± 0.7 |
| DLFDIDLRYFLLRVFKGCP | 0.579 ± 0.46 |
| DLFYYLRRLITRTWFM | 1.05 ± 0.27 |
